Biological target: alpha-thrombin (biotinylated, thrombin-BFPRck) (human, UniProt P00734;P00734 328-363;364-622)
Assay: BLI; 2 mM Ca2+; TBB: 20 mM HEPES pH 7.4, 150 mM NaCl, 2 mM CaCl2; room temperature (cell binding); BLI in TBB

B1: 5-12mini (structured_RNA)
RNA: GGGAGCUCAGAAUAAACGCUCAAGUUACUGAGCUCAGCAUGAGGCCCGGAUCCGGC
modifications: 2'-fluoro pyrimidines
For B1, the Kd was roughly 5 nM.

Source: paper PMC4486934
